Measurements: PMC11390479, “Visualizing chaperonin function in situ by cryo-electron tomography” (Nature, 2024)

B1: GroES (complex, E. coli, UniProt P0A6F9 1-97, looked up)
chain: MNIRPLHDRVIVKRKEVETKSAGGIVLTGSAAAKSTRGEVLAVGNGRILENGEVKPLDVKVGDIVIFNDGYGVKSEKIDNEEVLIMSESDILAIVEA
notes: GroES, E. coli co-chaperonin, heptamer of 10 kDa subunits; also called GroES 7-mer; lid-shaped cofactor GroES; source: E. coli BL21(DE3) Gold: endogenous or overexpressed from pBAD33 (with groEL, araBAD promoter), in cells
B2: S-adenosylmethionine synthase (MetK) (enzyme, E. coli)
chain: MAKHLFTSESVSEGHPDKIADQISDAVLDAILEQDPKARVACETYVKTGMVLVGGEITTSAWVDIEEITRNTVREIGYVHSDMGFDANSCAVLSAIGKQSPDINQGVDRADPLEQGAGDQGLMFGYATNETDVLMPAPITYAHRLVQRQAEVRKNGTLPWLRPDAKSQVTFQYDDGKIVGIDAVVLSTQHSEEIDQKSLQEAVMEEIIKPILPAEWLTSATKFFINPTGRFVIGGPMGDCGLTGRKIIVDTYGGMARHGGGAFSGKDPSKVDRSAAYAARYVAKNIVAAGLADRCEIQVSYAIGVAEPTSIMVETFGTEKVPSEQLTLLVREFFDLRPYGLIQMLDLLHPIYKETAAYGHFGREHFPWEKTDKAQLLRDAAGLK
notes: S-adenosylmethionine synthase MetK, obligate GroEL substrate of E. coli; 379 C-alpha atoms compared with PDB 7LOO; core loop residues 97-111; In vitro the protein was heat denatured (60 °C, 15 min) in the presence of GroEL before encapsulation; it stands in the chaperonin as a single subunit; also called fMetK (folded MetK); source: E. coli BL21(DE3): overexpressed from pET22b (T7 promoter, …)

Key:
[1] = biological target: the molecule itself; test: cryo-EM structure; single-particle analysis of in vitro reconstituted GroEL–GroES–MetK complexes with ADP–BeFx (non-cycling); control of GroEL and GroES treated identically without MetK
[2] = biological target: T1, GroEL (E. coli, UniProt P0A6F5 1-548); test: SEC; Superdex 200 3.2/300 GL; complex formed from 4 uM MetK heat denatured (60 °C, 15 min) with 1 uM GroEL 14-mer in buffer A (20 mM MOPS-NaOH pH 7.4, 200 mM KCl, 10 mM MgCl2, 5 mM DTT) with 30 mM NaF and 5 mM BeSO4, then 2 uM GroES 7-mer and 1 mM ATP; fractions by SDS-PAGE and mass spectrometry (iBAQ); conditions: both partners purified
T1 construct: GroEL, E. coli chaperonin, 57 kDa subunit; two heptameric rings; One molecule for endogenous, pBAD33-expressed and purified GroEL (same untagged protein, same host); also called GroEL 14-mer; GroEL14; source: E. coli BL21(DE3) Gold: endogenous or overexpressed from pBAD33 (araBAD promoter), in cells or in lysate; copies: 14
T1 sequence (P0A6F5 whole entry): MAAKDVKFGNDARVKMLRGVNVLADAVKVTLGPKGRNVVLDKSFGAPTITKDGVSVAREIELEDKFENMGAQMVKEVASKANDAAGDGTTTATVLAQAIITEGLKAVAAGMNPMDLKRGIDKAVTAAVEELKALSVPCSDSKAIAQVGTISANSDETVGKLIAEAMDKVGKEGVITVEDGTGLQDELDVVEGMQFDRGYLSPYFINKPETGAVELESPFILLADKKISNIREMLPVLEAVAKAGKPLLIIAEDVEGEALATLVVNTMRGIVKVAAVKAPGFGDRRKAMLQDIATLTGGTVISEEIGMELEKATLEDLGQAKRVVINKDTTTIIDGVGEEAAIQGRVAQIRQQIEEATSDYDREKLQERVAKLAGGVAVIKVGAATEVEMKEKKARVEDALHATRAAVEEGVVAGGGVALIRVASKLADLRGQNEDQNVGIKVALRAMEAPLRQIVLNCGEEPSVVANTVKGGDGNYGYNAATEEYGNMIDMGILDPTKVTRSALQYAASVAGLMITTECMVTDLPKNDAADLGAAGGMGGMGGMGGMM

[3] = biological target: T1, GroEL; test: cryo-electron tomography with subtomogram averaging; in vitro reconstituted, isolated GroEL–GroES–MetK complexes with ADP–BeFx, imaged with the parameters of the in situ tomography; conditions: both partners purified
[4] = biological target: T1, GroEL; test: co-IP; GroEL antibody on protein A Sepharose; lysate of MetK-overexpressing cells with apyrase (25 U/ml) to arrest the GroEL cycle; HMK buffer, 1 h; immunoblot for GroEL and MetK and LC-MS/MS (iBAQ); conditions: partners not purified

Binder | binding result [1] | stoichiometry N [2] [MetK per GroEL 14-mer] | percent of chambers with strong density of folded MetK (class I) [3] [%] | stoichiometry N [4]
B1 | binds | – | – | –
B2 | – | ~1.2 | ~40 | ~1.3 MetK molecules per GroEL complex
